# Entries after “also recorded” stand apart in the source; their conditions may differ.
# Biological target: T1, human NgR1 (Homo sapiens, UniProt Q9BZR6)
# T1 sequence (Q9BZR6 27-447): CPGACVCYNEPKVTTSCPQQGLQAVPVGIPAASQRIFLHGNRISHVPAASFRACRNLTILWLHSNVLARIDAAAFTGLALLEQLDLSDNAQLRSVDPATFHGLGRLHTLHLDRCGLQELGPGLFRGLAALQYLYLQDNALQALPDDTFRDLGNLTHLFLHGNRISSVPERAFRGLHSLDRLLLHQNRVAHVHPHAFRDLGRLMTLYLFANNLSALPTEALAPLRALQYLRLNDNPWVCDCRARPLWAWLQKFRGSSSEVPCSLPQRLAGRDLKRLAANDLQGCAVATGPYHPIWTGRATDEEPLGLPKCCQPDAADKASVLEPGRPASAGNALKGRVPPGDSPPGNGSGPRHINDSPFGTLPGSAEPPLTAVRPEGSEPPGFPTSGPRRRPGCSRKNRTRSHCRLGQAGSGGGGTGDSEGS
# Experiment: Antibody binding to human Nogo receptor-1
molecule,measurement,value
"7E11: murine monoclonal anti-Nogo receptor-1 antibody, IgG1 kappa, ATCC PTA-4587; immunogen rat Nogo receptor-1 residues 110-125 (antibody, V domains shown) VH: VQLQESGAELVMPGASVKMSCKASGYTFTDYWMHWVKQRPGQGLEWIGAIDPSDSYSSYNQNFKGKATLTVDGSSSTAYMQLSSLTSEDSAVYYCARRITEAGAWFAYWGQGTTVT VL: DVVMTQTPLSLPVSLGDQASISCRSSQSLVHSNGNTYLHWYLQKPGQSPKLLIYKVSNRFSGVPDRFSGSGSGTDFTLKISRVDAEDLGVYFCSQSTHVPFTFGGGTKLEIKRADAAPTVSISHH",binding to human NgR1,bound; also recorded: binds well
